Measured values: publication PMC3705364, “Biochemical and Electrophysiological Characterization of Two Sea Anemone Type 1 Potassium Toxins from a Geographically Distant Population of Bunodosoma caissarum” (Marine Drugs, 2013)
Where no end group is shown, it is not given here.

Experiments:
hKV1.3 [1] = biological target: T1, hKV1.3 (Homo sapiens, UniProt P22001)
rKV1.1 (rat) [2] = biological target: rKV1.1 (rat) (UniProt P10499)
rKV1.2 (rat) [3] = biological target: rKV1.2 (rat) (UniProt P63142)
rKV1.2 (rat), sequence (P63142 whole entry): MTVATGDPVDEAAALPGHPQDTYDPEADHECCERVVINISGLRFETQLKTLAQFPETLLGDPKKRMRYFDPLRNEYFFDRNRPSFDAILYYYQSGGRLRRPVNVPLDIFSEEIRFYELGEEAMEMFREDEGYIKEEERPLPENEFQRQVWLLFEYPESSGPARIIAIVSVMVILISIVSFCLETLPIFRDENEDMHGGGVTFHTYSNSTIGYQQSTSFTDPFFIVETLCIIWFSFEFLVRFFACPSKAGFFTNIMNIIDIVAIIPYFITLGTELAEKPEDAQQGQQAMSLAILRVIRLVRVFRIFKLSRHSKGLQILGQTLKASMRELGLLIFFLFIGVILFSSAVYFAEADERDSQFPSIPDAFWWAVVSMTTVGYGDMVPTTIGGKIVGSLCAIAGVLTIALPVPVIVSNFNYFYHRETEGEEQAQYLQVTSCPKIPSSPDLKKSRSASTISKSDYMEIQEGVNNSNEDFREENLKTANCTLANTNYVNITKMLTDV

Shaker IR (insect) [4] = biological target: Shaker IR (insect) (UniProt P08510)
Shaker IR (insect), sequence (P08510 whole entry): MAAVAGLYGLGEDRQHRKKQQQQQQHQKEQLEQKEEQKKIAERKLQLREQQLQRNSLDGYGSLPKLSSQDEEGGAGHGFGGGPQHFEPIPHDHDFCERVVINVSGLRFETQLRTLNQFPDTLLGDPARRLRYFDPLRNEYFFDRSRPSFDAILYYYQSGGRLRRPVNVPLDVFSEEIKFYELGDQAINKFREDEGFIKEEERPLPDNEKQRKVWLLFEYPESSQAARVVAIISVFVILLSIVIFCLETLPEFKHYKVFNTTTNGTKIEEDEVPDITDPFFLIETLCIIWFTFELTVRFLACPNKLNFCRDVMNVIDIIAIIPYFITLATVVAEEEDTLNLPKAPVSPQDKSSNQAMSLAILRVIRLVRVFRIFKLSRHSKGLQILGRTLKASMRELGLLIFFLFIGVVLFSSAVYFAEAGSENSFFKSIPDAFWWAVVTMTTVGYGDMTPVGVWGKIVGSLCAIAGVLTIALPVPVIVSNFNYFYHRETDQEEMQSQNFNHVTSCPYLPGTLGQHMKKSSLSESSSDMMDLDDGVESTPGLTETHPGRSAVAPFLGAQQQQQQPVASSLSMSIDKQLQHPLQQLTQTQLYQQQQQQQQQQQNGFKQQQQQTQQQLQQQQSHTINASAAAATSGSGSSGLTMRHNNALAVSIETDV

rKV1.6 (rat) [5] = biological target: rKV1.6 (rat) (UniProt P17659)
rKV1.6 (rat), sequence (P17659 whole entry): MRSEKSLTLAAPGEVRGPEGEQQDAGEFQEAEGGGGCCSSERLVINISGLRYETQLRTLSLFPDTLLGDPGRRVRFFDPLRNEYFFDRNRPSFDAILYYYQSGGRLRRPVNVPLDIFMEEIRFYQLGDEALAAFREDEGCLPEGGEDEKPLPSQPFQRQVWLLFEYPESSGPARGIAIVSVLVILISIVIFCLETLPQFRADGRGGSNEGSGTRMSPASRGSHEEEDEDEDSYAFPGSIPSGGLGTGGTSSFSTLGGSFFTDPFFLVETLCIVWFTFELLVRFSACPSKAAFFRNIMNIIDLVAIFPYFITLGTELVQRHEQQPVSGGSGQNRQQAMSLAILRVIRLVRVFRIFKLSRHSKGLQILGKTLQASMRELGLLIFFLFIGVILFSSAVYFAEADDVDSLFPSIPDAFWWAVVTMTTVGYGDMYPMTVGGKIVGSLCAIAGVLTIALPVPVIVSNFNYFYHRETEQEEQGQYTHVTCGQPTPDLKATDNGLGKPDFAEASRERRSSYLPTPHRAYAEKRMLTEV

hKV1.3 [6] = biological target: T1, hKV1.3; remark: listed apart in the source
rKV1.1 (rat) [7] = biological target: rKV1.1 (rat) (UniProt P10499); remark: listed apart in the source
rKV1.2 (rat) [8] = biological target: rKV1.2 (rat) (UniProt P63142); remark: listed apart in the source
Shaker IR (insect) [9] = biological target: Shaker IR (insect) (UniProt P08510); remark: listed apart in the source
rKV1.6 (rat) [10] = biological target: rKV1.6 (rat) (UniProt P17659); remark: listed apart in the source
KV1.2 = details: expressed in Xenopus oocytes; cited from earlier work
Method: The pharmacological profile of BcsTx-1 and -2 were determined on a wide range of twelve KV channels (rKV1.1, rKV1.2, hKV1.3, rKV1.4, rKV1.5, rKV1.6, rKV2.1, rKV3.1, rKV4.2, rKV4.3, hERG and the insect channel Shaker IR; r: rat and h: human). Channels were expressed in X. laevis oocytes, and their currents were recorded by using two-electrode voltage-clamp technique. BcsTx1 (0.5 µM) inh ... || In order to characterize the potency and selectivity profile, concentration-response curves were constructed for BcsTx1. […] A concentration-response curve was also constructed to determine the concentration at which BcsTx2 blocked half of the channels.

KV1.6 = details: cited from earlier work
Description: In order to characterize the potency and selectivity profile, concentration-response curves were constructed for BcsTx1. […] A concentration-response curve was also constructed to determine the concentration at which BcsTx2 blocked half of the channels.

T1 sequence (P22001 whole entry): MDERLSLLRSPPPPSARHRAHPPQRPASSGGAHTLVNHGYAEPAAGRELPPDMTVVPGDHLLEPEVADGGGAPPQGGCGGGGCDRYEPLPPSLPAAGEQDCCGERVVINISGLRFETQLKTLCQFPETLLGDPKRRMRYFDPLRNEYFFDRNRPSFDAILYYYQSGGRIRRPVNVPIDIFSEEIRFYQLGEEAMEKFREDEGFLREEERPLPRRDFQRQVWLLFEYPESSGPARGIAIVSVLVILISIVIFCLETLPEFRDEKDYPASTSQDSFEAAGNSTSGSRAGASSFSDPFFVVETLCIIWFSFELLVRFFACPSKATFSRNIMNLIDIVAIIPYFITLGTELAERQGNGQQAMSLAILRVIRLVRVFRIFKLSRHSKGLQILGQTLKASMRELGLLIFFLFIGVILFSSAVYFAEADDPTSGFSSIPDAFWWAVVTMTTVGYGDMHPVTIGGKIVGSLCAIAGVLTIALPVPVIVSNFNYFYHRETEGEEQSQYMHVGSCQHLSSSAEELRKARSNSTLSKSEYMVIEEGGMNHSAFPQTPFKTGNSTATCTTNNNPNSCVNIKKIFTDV
rKV1.1 (rat), sequence (P10499 whole entry): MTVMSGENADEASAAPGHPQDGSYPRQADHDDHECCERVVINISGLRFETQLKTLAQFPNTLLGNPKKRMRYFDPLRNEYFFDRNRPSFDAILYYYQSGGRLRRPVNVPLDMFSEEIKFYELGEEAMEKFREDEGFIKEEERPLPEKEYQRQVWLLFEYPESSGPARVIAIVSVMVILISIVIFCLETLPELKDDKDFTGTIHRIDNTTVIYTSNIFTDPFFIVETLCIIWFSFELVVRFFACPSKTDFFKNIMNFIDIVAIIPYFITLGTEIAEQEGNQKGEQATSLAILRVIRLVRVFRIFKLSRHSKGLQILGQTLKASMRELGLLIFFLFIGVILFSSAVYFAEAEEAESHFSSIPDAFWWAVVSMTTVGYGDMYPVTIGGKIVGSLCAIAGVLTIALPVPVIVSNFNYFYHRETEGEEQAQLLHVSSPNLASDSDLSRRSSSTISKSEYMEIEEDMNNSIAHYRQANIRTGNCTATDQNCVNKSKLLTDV

BcsTx1 (from UniProt C0HJC2 1-38) (peptide)
percent inhibition of the channel's current by 0.5 µM BcsTx1, two-electrode voltage clamp on X. laevis oocytes (hKV1.3 [1]): 100% | percent inhibition of the channel's current by 0.5 µM BcsTx1, two-electrode voltage clamp on X. laevis oocytes (rKV1.1 (rat) [2]): 44% | percent inhibition of the channel's current by 0.5 µM BcsTx1, two-electrode voltage clamp on X. laevis oocytes (rKV1.2 (rat) [3]): 100% | percent inhibition of the channel's current by 0.5 µM BcsTx1, two-electrode voltage clamp on X. laevis oocytes (Shaker IR (insect) [4]): 64% | percent inhibition of the channel's current by 0.5 µM BcsTx1, two-electrode voltage clamp on X. laevis oocytes (rKV1.6 (rat) [5]): 88% | IC50 of block of the channel's K+ current, two-electrode voltage clamp on X. laevis oocytes, concentration-response curve (hKV1.3 [6]): 74.1 nM | IC50 of block of the channel's K+ current, two-electrode voltage clamp on X. laevis oocytes, concentration-response curve (rKV1.1 (rat) [7]): 405 nM | IC50 of block of the channel's K+ current, two-electrode voltage clamp on X. laevis oocytes, concentration-response curve (rKV1.2 (rat) [8]): 0.03 nM | IC50 of block of the channel's K+ current, two-electrode voltage clamp on X. laevis oocytes, concentration-response curve (Shaker IR (insect) [9]): 248 nM | IC50 of block of the channel's K+ current, two-electrode voltage clamp on X. laevis oocytes, concentration-response curve (rKV1.6 (rat) [10]): 1.31 nM

AsKs: type 1 toxin from Anemonia viridis / Anemonia sulcata (Swiss-Prot Q9TWG1) (ACKDNFAAATCKHVKENKNCGSQKYATNCAKTCGKC; UniProt Q9TWG1 1-36, looked up)
block of KV1.2 current (in words) (KV1.2): blocker of KV1.2 current

MgTX: toxin from Centruroides margaritatus (TIINVKCTSPKQCLPPCKAQFGQSAGAKCMNGKCKCYPH; ends and bridges not checked; cysteine pairing not given here; UniProt P40755 1-39, looked up)
IC50 (KV1.6): 5 nM | binding affinity to KV1.6 (in words) (KV1.6): binds with very high affinity to KV1.6
